± gives the uncertainty stated by the source.
Experiment: amyloid nucleation score (Sup35N fusion, yeast selection) (log enrichment); library NNK1; higher = more nucleation; inactive = no reads after selection
Outline: (§1)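 For the nucleation score, DiMSum gave the log enrichment of output over input reads, centred on the mode score of non-aggregating sequences. Psi-negative yeast expressing Sup35N fused to peptides of 20 random codons were induced with 100 μM copper sulfate for 24 hours and grown 7 days at 30°C on medium lacking adenine and uracil. Input and output plasmid inserts were Illumina-sequenced, and sequences with under 100 input reads were excluded.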

Substance | amyloid nucleation score
WFELWKSVRGMENYAYVARC | -0.043 ± 0.29
TVFWRYCSRVLNDKFGQFWV | 0.043 ± 0.35
ERPAAYATVTTSCKKTWDL | 7.769 ± 0.06
FWREHTMR | inactive
MGGRGGTDCRASMYSSACMG | 1.74 ± 0.26
WQVNVLIIMCGSFLLVFDFQ | 0.359 ± 0.45
NGFCEVDIVLFRVEVVAACV | -0.965 ± 2.4
SIRVSDYQRVFNNIGMSNCN | -0.454 ± 0.53
KKVSLRLSSAVILSANSAML | -0.258 ± 0.54
KYDRCYYSRMNPSCVYIPYS | 2.47 ± 0.4
GLCYNEVDAVASGESGDDRG | -0.376 ± 0.45
ICYVNVL | -1.18 ± 1.7
PAHKLILFPPCCVGVWYSER | inactive
GPFGLGSMSGSIKWRYHVCC | 0.528 ± 0.43
LLRMIKICYDLRSNLDSWRS | -0.529 ± 1.7
SRVFRLVFKPSYGSLTRRCR | -0.904 ± 1.9
RSRAISIKWCIGVGHPGNWV | inactive
RLSTFSFMVSICTHCLLYTN | 1.06 ± 0.59
PMLGGRESEEPRVGWKVGWV | 0.377 ± 0.27
LRCVLQSRRWEIGMLRLTER | -0.267 ± 0.35
SIHGGFYTLPE | 1.15 ± 0.51
SRYIGSSPARMMASWTFQGL | 4.01 ± 0.078
RDTVTSNSSVT | 4.36 ± 0.095
ANLVWDYFQVSTSPMCPLVQ | -2.07 ± 2.4
GSKRT | 0.316 ± 0.42
DFWMSRKYLNVSMQ | 3.98 ± 0.1

Substance | amyloid nucleation score
SRYELSIVDCLRHTTSFFVR | 0.034 ± 0.81
WEVERDTSSPSEIVINR | -0.063 ± 0.89
HFVILVLFMMMSSIGMVTRA | 5.16 ± 0.054
RFMCWVFTGCLGLSGNSSC | 1.95 ± 0.16
HVYCLRWRYC | -0.318 ± 0.35
QYMREEAGVALNGETHFFSL | 0.567 ± 0.39
GSPLVVSKTVVFMSGNF | 7.149 ± 0.052
SKLMTRVTVWLGSYGRGSWH | 0.629 ± 0.83
CVLPSNYDFV | inactive
ISNGIYISKEGFHEWSNRH | 4.18 ± 0.064
RFLSMWSHCQLMF | inactive
CFCPSKGDTDRLWAHFSARF | -0.093 ± 0.45
NVSNLGSLMSTYGESCLVNF | inactive
QWLYYVKEPIAYSLL | 0.46 ± 0.24
RIFLSVLLLMTVNVSVWPCH | -1.23 ± 1.5
KVAHCCSDMYSWRVGKMMSM | 0.024 ± 0.79
LQLTYPPLVVPSSRWCLLLS | -0.099 ± 0.97
MLIKSIFIFSTLLYISMYD | 0.786 ± 0.29
CLIYYVYSRWIIPMYITGRR | -0.27 ± 0.81
SLQAIGNWYHD | 0.038 ± 0.6
KRVIAMLTLIFG | 0.534 ± 0.64
LWYVAPHVTRSNFEVQGGCG | -0.249 ± 0.34
DGRFLCFHIGSLMSGWDGRQ | -0.783 ± 0.75
LKRFMDTDYYFMMKCCTSN | 0.843 ± 0.55
KFFEFLYKFDPCRRYCRLCQ | 0.264 ± 0.36
MILRVVCHLNVCS | 6.921 ± 0.05

Substance | amyloid nucleation score
IDLGFLNKCLCRNSCCVGEA | 1.81 ± 0.17
CHYGDPSGWGQLTPSTWTGE | 0.573 ± 0.42
TEGRKSSNVQ | 0.577 ± 0.47
LKHPDIYRKVERKVRVNMFF | -0.792 ± 0.31
GIQLTVFGLLLCFGTGLKVF | 0.078 ± 0.6
TEDVKAVKVLGLTLGVQVIT | -0.657 ± 0.38
RDPYMCSLVRAGSGSKGTI | 0.447 ± 0.56
VPSFITYLVVDLWDALQGYH | 0.409 ± 0.42
LVCSIMWNGVRHAPVRCKPT | -0.382 ± 0.47
FGQNFEGIWPFVVKNRRLGQ | -1.12 ± 0.59
FIASIG | 0.274 ± 0.79
LSDWYNLRRWRTVTWAQQLH | -0.4 ± 1.3
RDSQMMNT | 0.312 ± 0.37
LSLILFVCRIYTYSCSHRAL | 0 ± 0.36
AYIVNIELGNRTS | 7.04 ± 0.056
NLLLIMDFVGWV | 1.48 ± 0.56
YYLDGTGLWVNCVRMARGCG | 1.16 ± 0.78
MMAIIFMCNV | 3.05 ± 0.18
NCWFCNRQNSLSGKELYVIR | inactive
FLLLFDQFSVLMCCAQVLCL | 4.56 ± 0.058
LGKQAMC | -1.34 ± 2.4
NIGMGSTLFLGRMSEQCWCS | 2.32 ± 0.14
TCFEMLPLK | 0.454 ± 0.5
SIFWSRTVLLMN | 5.97 ± 0.1
KNMAYHDSLDSVYPAVG | 0.32 ± 0.57

Experiment: amyloid nucleation score (Sup35N fusion, yeast selection) (log enrichment); library NNK2; higher = more nucleation; inactive = no reads after selection
Outline: as §1

Substance | amyloid nucleation score
KWMLHSVR | 0.772 ± 0.22
YFLRYSS | inactive
YISGWYCVNTVSRNNSYRES | -1.72 ± 0.49
GVHMSDRVNTMSD | -0.129 ± 1.1
DVHHRIIMMLLGGFWYACGY | -0.428 ± 0.27
TVRVST | -0.004 ± 0.36
YADPFSERYNFSALVFPFNI | inactive
